Laboratory results as given in US20220041744A1 (INNATE PHARMA, published 2022).

B1: H1L0 (antibody, human IgG1, V domains shown)
VH: QIQLVQSGAEVKKPGASVKVSCKASGYTFTSYNMYWVRQAPGQRLEWMGYIDPYNGGSSYNLTFKGRVTITRDKSASTAYMELSSLRSEDTAVYYCARGYGNYKAWFAYWGQGTLVTVSS
VL: DIQMTQSPSSLSASVGDRVTITCKASQSVSNDVAWYQQKPGKAPKLLIYYASTRYTGVPSRFSGSGSGTDFTFTISSLQPEDIATYYCQQDYSSLTFGQGTKLEIK
notes: L0 VL limits counted by alignment with L1
B2: H1L1 (antibody, human IgG1, V domains shown)
VH: QIQLVQSGAEVKKPGASVKVSCKASGYTFTSYNMYWVRQAPGQRLEWMGYIDPYNGGSSYNLTFKGRVTITRDKSASTAYMELSSLRSEDTAVYYCARGYGNYKAWFAYWGQGTLVTVSS
VL: DIQMTQSPSSLSASVGDRVTITCKASQSVSNDVAWYQQKPGKAPKLLIYYASTRYTGVPSRFSGSGYGTDFTFTISSLQPEDIATYYCQQDYSSLTFGQGTKLEIK
B3: H2L1 (antibody, human IgG1, V domains shown)
VH: QIQLVQSGAEVKKPGASVKVSCKASGYAFTSYNMYWVRQAPGQSLEWMGYIDPYNGGSSYNLTFKGRVTITVDKSASTAYMELSSLRSEDTAVYYCARGYGNYKAWFAYWGQGTLVTVSS
VL: DIQMTQSPSSLSASVGDRVTITCKASQSVSNDVAWYQQKPGKAPKLLIYYASTRYTGVPSRFSGSGYGTDFTFTISSLQPEDIATYYCQQDYSSLTFGQGTKLEIK
B4: H2L0 (antibody, human IgG1, V domains shown)
VH: QIQLVQSGAEVKKPGASVKVSCKASGYAFTSYNMYWVRQAPGQSLEWMGYIDPYNGGSSYNLTFKGRVTITVDKSASTAYMELSSLRSEDTAVYYCARGYGNYKAWFAYWGQGTLVTVSS
VL: DIQMTQSPSSLSASVGDRVTITCKASQSVSNDVAWYQQKPGKAPKLLIYYASTRYTGVPSRFSGSGSGTDFTFTISSLQPEDIATYYCQQDYSSLTFGQGTKLEIK
notes: as for B1
B5: H3L0 (antibody, human IgG1, V domains shown)
VH: QIQLVQSGAEVKKPGASVKVSCKASGYAFTSYNMYWVRQAPGQSLEWIGYIDPYNGGSSYNLTFKGKATITVDKSASTAYMELSSLRSEDTAVYYCARGYGNYKAWFAYWGQGTLVTVSS
VL: DIQMTQSPSSLSASVGDRVTITCKASQSVSNDVAWYQQKPGKAPKLLIYYASTRYTGVPSRFSGSGSGTDFTFTISSLQPEDIATYYCQQDYSSLTFGQGTKLEIK
notes: as for B1
B6: H1L2 (antibody, human IgG1, V domains shown)
VH: QIQLVQSGAEVKKPGASVKVSCKASGYTFTSYNMYWVRQAPGQRLEWMGYIDPYNGGSSYNLTFKGRVTITRDKSASTAYMELSSLRSEDTAVYYCARGYGNYKAWFAYWGQGTLVTVSS
VL: DIQMTQSPSSLSASVGDRVTITCKASQSVSNDVAWYQQKPGKAPKLLIYYASTRYTGVPDRFSGSGYGTDFTFTISSLQPEDIATYYCQQDYSSLTFGQGTKLEIK
B7: H3L1 (antibody, human IgG1, V domains shown)
VH: QIQLVQSGAEVKKPGASVKVSCKASGYAFTSYNMYWVRQAPGQSLEWIGYIDPYNGGSSYNLTFKGKATITVDKSASTAYMELSSLRSEDTAVYYCARGYGNYKAWFAYWGQGTLVTVSS
VL: DIQMTQSPSSLSASVGDRVTITCKASQSVSNDVAWYQQKPGKAPKLLIYYASTRYTGVPSRFSGSGYGTDFTFTISSLQPEDIATYYCQQDYSSLTFGQGTKLEIK
B8: H4L1 (antibody, human IgG1, V domains shown)
VH: QIQLVQSGAEVKKPGASVKVSCKASGYAFASYNMYWVRQAPGQSLEWIGYIDPYNGGSSYNLTFKGKATLTVDKSASTAYMELSSLRSEDTAVYYCARGYGNYKAWFAYWGQGTLVTVSS
VL: DIQMTQSPSSLSASVGDRVTITCKASQSVSNDVAWYQQKPGKAPKLLIYYASTRYTGVPSRFSGSGYGTDFTFTISSLQPEDIATYYCQQDYSSLTFGQGTKLEIK
B9: chimeric parental 3C12 antibody (antibody, human IgG1, V domains shown)
VH: QIQLQQSGPELVKPGASVKVSCKASGYAFASYNMNWVKQSHGKSLDWIGYIDPYNGGSSYNLTFKGKATLTVDKSSTTAYMHLNSLTSEDSAVYYCARGYGNYKAWFAYWGQGTLVTVSA
VL: DVVMTQTPKFLLVSAGDRVTITCKASQSVSNDVAWYQQKPGQSPKLLIYYASTRYTGVPDRFTGSGYGTDFTFTISTVQAEDLAVYFCQQDYSSLTFGAGTKLELK
notes: also called HPLP; parental antibody 3C12

Key:
[1] = target: T1, human CD73 expressed at the surface of cells (human, UniProt P21589 27-549); assay: flow cytometry titration on transfected cells expressing human CD73, PE goat anti-human IgG (H+L) detection, MFI
T1 construct: T cells in the proliferation assays; also called huCD73; CD73-expressing cells
T1 sequence: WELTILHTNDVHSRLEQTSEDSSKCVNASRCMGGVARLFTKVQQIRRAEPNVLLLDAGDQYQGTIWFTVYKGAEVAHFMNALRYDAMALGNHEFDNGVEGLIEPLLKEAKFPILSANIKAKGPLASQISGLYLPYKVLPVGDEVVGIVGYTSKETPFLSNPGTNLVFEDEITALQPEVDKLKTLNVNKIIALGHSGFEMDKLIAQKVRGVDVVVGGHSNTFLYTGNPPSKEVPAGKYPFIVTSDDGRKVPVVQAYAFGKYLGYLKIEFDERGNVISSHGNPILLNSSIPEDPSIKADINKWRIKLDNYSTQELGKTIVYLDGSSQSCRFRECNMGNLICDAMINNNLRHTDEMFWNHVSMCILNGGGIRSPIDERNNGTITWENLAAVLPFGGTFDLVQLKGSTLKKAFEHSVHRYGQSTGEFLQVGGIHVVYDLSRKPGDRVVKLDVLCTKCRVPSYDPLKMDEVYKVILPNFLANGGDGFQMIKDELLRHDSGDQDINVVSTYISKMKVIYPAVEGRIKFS

[2] = target: T2, human recombinant soluble CD73 protein (human, UniProt P21589 27-547); assay: SPR, Ab captured on Protein A, soluble huCD73 as analyte
T2 construct: also called huCD73; rhCD73
T2 sequence: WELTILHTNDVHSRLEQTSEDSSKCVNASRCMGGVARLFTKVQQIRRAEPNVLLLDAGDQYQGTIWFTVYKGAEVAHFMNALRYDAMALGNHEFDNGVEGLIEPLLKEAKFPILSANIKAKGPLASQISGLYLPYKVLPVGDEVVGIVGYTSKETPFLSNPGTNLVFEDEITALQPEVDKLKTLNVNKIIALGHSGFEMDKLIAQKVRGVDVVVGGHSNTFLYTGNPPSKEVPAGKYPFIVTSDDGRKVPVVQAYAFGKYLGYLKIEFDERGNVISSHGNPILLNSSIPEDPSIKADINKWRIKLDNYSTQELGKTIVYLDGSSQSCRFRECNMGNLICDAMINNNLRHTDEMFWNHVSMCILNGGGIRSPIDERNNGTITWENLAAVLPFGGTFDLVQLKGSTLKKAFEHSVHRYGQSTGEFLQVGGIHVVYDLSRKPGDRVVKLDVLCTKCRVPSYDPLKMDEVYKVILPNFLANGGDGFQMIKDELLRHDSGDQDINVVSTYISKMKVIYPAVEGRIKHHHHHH
Method: SPR measurements were performed on a Biacore™ T200 apparatus at 25° C. Protein-A (GE Healthcare) was immobilized on a Sensor Chip CM5 (GE Healthcare). […] The entire sensorgram sets were fitted using the 1:1 kinetic binding model. Bivalent affinities and kinetic association and dissociation rate constants are calculated.
The binding of the antibodies in Table 2 of Example 1 were tested for binding to human soluble dimeric CD73 proteins and were cloned, produced and purified. Affinity and association and dissociation constants of humanized variants were assessed by SPR analysis.

[3] = target: T3, cynomolgus CD73 expressed on transfected cells (cynomolgus monkey (Macaca fascicularis)); assay: flow cytometry titration on transfected cells expressing cynomolgus CD73, PE goat anti-human IgG (H+L) detection, MFI
T3 construct: cell-surface expressed on a transfected cell line; Same protein as m38, which is the recombinant soluble form; It is kept apart from m38 as the first reading kept m36 and m37 apart for human CD73; also called cynomolgus CD73 protein (cell surface); cyCD73

Binder | EC50 (read off the curve) [1] | Kd [2] | koff [2] | kon [2] | EC50 (read off the curve) [3]
B1 | ~0.2 mg/L | 28.7 nM | 0.00296 s⁻¹ | 103000 M⁻¹ s⁻¹ | 
B2 |  | 0.8 nM | 8.43e-05 s⁻¹ | 100000 M⁻¹ s⁻¹ | ~0.2 mg/L
B3 | ~0.1 mg/L | 1.4 nM | 0.000118 s⁻¹ | 83700 M⁻¹ s⁻¹ | 
B4 | ~0.2 mg/L |  |  |  | ~0.2 mg/L
B5 | ~0.2 mg/L | 29.4 nM | 0.00797 s⁻¹ | 271000 M⁻¹ s⁻¹ | ~0.2 mg/L
B6 |  | 0.6 nM | 8.38e-05 s⁻¹ | 135000 M⁻¹ s⁻¹ | ~0.2 mg/L
B7 | ~0.3 mg/L | 1.8 nM | 0.00014 s⁻¹ | 78900 M⁻¹ s⁻¹ | 
B8 |  | 1.7 nM | 0.000179 s⁻¹ | 106000 M⁻¹ s⁻¹ | ~0.2 mg/L
B9 |  | 0.68 nM |  |  | ~0.2 mg/L
